# Measurements reported in PMC9922279.
# Biological target: Trimeric polymerase with PB2 71-73A (PB1 WT, PB2 71-73A, strep-tagged PA)
# Details: parent: est. 1.0; read off a plot
substance,measurement,value
"Trimeric influenza A virus A/WSN/1933 (H1N1) polymerase (PB1 wild type, PB2, HA-tagged PA) (from UniProt P15659) PB2 71-73A",ratio to parent,0.5 n-fold of WT
